The record followed here is the DeepSol protein solubility set.

The series can be described thus: soluble on expression in E. coli; label from the status in PepcDB or PDB records.
“MGSDKIHHHHHHMTFEEFKDRLFALAKKNGVEVQISFLETREFSLRLANGDLDQYTDAGKFNVEIKVLKDGKTGTFRTQVLENPEKCFEEALSNLQVKDSEEKEYFFEGGKEYREMETYVGRFEKLSVKEKMDMAKKAHESAAKDERVVMVPTVMYKDMVIKKIITNTLGLDVESQMDGGFLFAMAIARDANPRSGSWYELARTPEDLNPEEIGKRAAEEAISLIGSKTIPSGKYPVLMRNTALLDLMEMFIPMISAENVQKNLSPLKGKLGEQVGNPAVSIKDLPYHPKGLSSTPFDDEGVPTTEKFVLENGVLKTFLHNLKTARKEGVEPTGNGFVGGIRPVNLMLMPGEKSFEELLKEMDRGVVITEVEGMHAGANSISGEFSLFAKGYWVENGEIAHGVEDITISGNFLDLLRKIVLVGNDVKVSQHTIAPSVLVEVLDVAGK”: the “soluble on expression in E. coli” value was “soluble”.

For the sequence “MGSDKIHHHHHHMTFNVPDVKPLINDEFAGEAPKRALSYIANKRSAGMPVAGTYCGYAPMEVIRAVGAVPAVLCAFANKTIPAAEAVLPANLCPLIKSSYGFILTDTCPFFALSDAVVAETTCDGKKKMFELIFSHRPMFVMDLPQLPDEVEARANWATMISKLKGFLENTFGTFGTSEGIEAEIQATNIKNRLMRRVFGYAEKKPPLLSWSELYELCFLAQVATTEDLLPVFKEVFERLEEREAKGIYYGAPSSPRVLVTGCPVGGDSTKVFRIIEEAGGVVVAMDSCSGMKPFIADIEEKTGNPIDSVARHYLEIPCSCMTPNTRRLTELDKALAAFQPDAVVEVVLHACHSYNIEAIKIMNYLKEKHNLPYLKIVTDYSEGDVEQIRTRVEALLESI”, the “soluble on expression in E. coli” value is reported as “not soluble”.

For “MGSDKIHHHHHHMTGKTVDLKLPAKLDGLFKPCRYKVMYGGRGGGKSHGAASALLALGAQRPLRILCAREIQKSMRDSVHRLLKDKVAQLGLGHFYEITDFEIRGANGTLFVFSGLQSHTVDSIKSFEGIDIVWVEEGHGVSKKSWDVLTPTIRKEGSEIWITLNPDMETDETYRRFIAMPSEDTWLCEINWRDNPWFPEALNRERLKAQRSMNKEDYGNIWEGRPRMVSEGAVYRHEIQDAFHSGRVTLVPYDSSLPVHTVWDLGWNDAMTIGLVQRDLTSVRIIGYIEDTHRTLDWYVAELEKLPYRWGTDFLPHDGRTRNFQTGKSTMEILTGLGRKSVFVQNATGIEEGIRAARMLFPKVYFDKDKTARLLECLKRYGRQIHAKTGVAMGPLHDEYSHGADMFRYLAQAVDLMDTGSNTGYTETPVSDWRLY”, the “soluble on expression in E. coli” value is “not soluble”.

As for “MGSDKIHHHHHHMTGLSQSQASPMQIQPGNAAFNPWTDAALDTIRDVNQALTLYAEMRVVPAHHDAFLAAIDTVSAKLRVLPGFLSLALKQMSGDSTMVKNYPETYKGVLATAYLDGVAAGTQPYFYNLFVRFADGRAARAAGFEALFETHIHPLLHAMAPRGGDGPELLAYRAVLQSVVAGDRHAIYRGAEEIRSFLRRPVELPERETVTVENHVMVPEDKHAAWEPQVAILLQVAQDTFEPQDEPSGVGLPGARDNRYYRKALSTEILRNAHADGGLRAYIMHGVWESVWDHENSHLDPRFLAAAGPVGAAAVVGPVEPFYLTRRLVVAD”, the “soluble on expression in E. coli” value was “not soluble”.

Take “MGSDKIHHHHHHMTIFERSKKGRKAFRLPESDIPEYSLPDRFLRRTPPELPEVSEPDLVRHYTNLARKNYSVDLGIYPLGSCTMKYNPKLNEKAANLEGFREIHPYQPVETVQGSLRLMYELKKMLCEITGMDDMTLQPAAGAHGELTGMLIVREYFKNRGDTGRKKVLVPDSAHGTNPASASMVGFEVVEIKSKNGMVDVEDLKKLLDEEVAAVMLTNPNTLGLFEKDILKIAEMTHECGALLYYDGANLNAIMGKVRPGDMGFDIVHLNLHKTFSTPHGMGGPGSGPVGVKKHLVDFLPFPQVKKNGELYELFVPEKTIGRVRSFFGNFPVLVKAYTYILTMGRDGLERVSEMAVLNANYLKKKIEKFLEIPYNGFCMHEFVASAEKVFRETGVRTLDIAKRILDFGVHPPTVYFPLIVPEALMIEPTETENKETLDKYAEILERVVKEAYENPDALKNAPHNTPVRRVNEVLASKKPVFRWRG”: the “soluble on expression in E. coli” value was “not soluble”.

In the case of “MGSDKIHHHHHHMTILDHKIDFAVILSVTKANPNGDPLNGNRPRQNYDGHGEISDVAIKRKIRNRLLDMEEPIFVQSDDRKADSFKSLRDRADSNPELAKMLKAKNASVDEFAKIACQEWMDVRSFGQVFAFKGSNLSVGVRGPVSIHTATSIDPIDIVSTQITKSVNSVTGDKRSSDTMGMKHRVDFGVYVFKGSINTQLAEKTGFTNEDAEKIKRALITLFENDSSSARPDGSMEVHKVYWWEHSSKLGQYSSAKVHRSLKIESKTDTPKSFDDYAVELYELDGLGVEVIDGQ”, the “soluble on expression in E. coli” value is listed as “not soluble”.
